Read-outs that look alike come from different tables or passages of the source.
How the values were obtained:
[1] = target: HSV-1 glycoprotein B construct gBΔ71 (residues 72-904) (Herpes Simplex Virus type 1 (HSV-1)) (UniProt P06437); experiment: crystal structure
[2] = target: HSV-1 glycoprotein B construct gBΔ71 (residues 72-904) (Herpes Simplex Virus type 1 (HSV-1)) (UniProt P06437); experiment: crystal structure; remark: listed apart in the source

Substance “HSV-1 glycoprotein B construct gBΔ71 (residues 72-904) (from UniProt P06437 72-904) (natural protein)” has a stoichiometry N [1] of 3 and a stoichiometry N [2] of 3.
